The target in series [1] is T1, Transferrin receptor 1 (TfR1, CD71) (Homo sapiens, UniProt P02786 SEQ:89-760). In words: BLI; no appreciable binding, single concentration. To be noted: tags: biotinylated, ACROBiosystems TfR-H82E5, immobilized on streptavidin biosensor; chain copies: 2; label: 5'-FAM.
Series [2] concerns the target T2, Cellular nucleic acid-binding protein (CNBP, ZNF9) (Homo sapiens, UniProt P62633 P62633:1-177). Put plainly: BLI. Conditions: tags: His-tag, Novus Biologicals NBP2-22742, immobilized on Ni-NTA biosensor.
Series [3] concerns the target T1, Transferrin receptor 1 (TfR1, CD71). Put plainly: BLI; negative control. Conditions: tags: biotinylated, ACROBiosystems TfR-H82E5, immobilized on streptavidin biosensor; chain copies: 2; label: 5'-FAM, 5'-Cy5 or 5'-biotin.
For series [4], the target named is T3, Transferrin receptor 1 (TfR1, CD71), endogenous on cells (Homo sapiens, UniProt P02786 SEQ:89-760). Put plainly: flow; Jurkat cells, apparent Kd, 4 C. Conditions: chain copies: 2 (stated homodimer).
Series [5] deals with T3, Transferrin receptor 1 (TfR1, CD71), …. In words: flow; activated CD4+ T cells, apparent Kd, 4 C. Conditions: chain copies: 2 (stated homodimer); label: biotin; 3' 8-nt toehold overhang, redesigned stem.
Series [6] has the same target. Put plainly: flow; activated CD8+ T cells, apparent Kd, 4 C. Conditions: chain copies: 2 (stated homodimer); label: biotin; 3' 8-nt toehold overhang, redesigned stem.
The target of series [7] is T1, Transferrin receptor 1 (TfR1, CD71). In words: BLI; 25 C, 5.5 mM Mg, 1:1 fit. To be noted: tags: biotinylated, ACROBiosystems TfR-H82E5, immobilized on streptavidin biosensor, chain copies: 2. In general terms: Biolayer interferometry detects binding as a change in optical thickness at a sensor tip.
Series [8] concerns the target T3, Transferrin receptor 1 (TfR1, CD71), …. Put plainly: flow; H9 cells, apparent Kd, 4 C. To be noted: chain copies: 2 (stated homodimer); label: 5'-FAM or 5'-Cy5; multi-hairpin with extended stem.
The target is the same in series [9]. In words: flow; H9 cells, apparent Kd (+/-13.0), 4 C. Conditions: chain copies: 2 (stated homodimer); label: 5'-FAM (with added 5' T), 5'-Cy5 or 5'-biotin; multi-hairpin on stem; G-quadruplex predicted.
In series [10] the target is Transferrin receptor 1 (mTfR1) (Mus musculus, UniProt Q62351 SEQ:89-763). In words: BLI; 200 nM mTfR1 over immobilized biotinylated aptamer. To be noted: tags: His-tag, Sino Biological 50741-M07H; chain copies: 2; label: 5'-FAM (with added 5' T), 5'-Cy5 or 5'-biotin; multi-hairpin on stem; G-quadruplex predicted.
Series [11] has as its target T2, Cellular nucleic acid-binding protein …. Put plainly: BLI; 2:1 heterogeneous ligand fit, first Kd; off-target. To be noted: tags: His-tag, Novus Biologicals NBP2-22742, immobilized on Ni-NTA biosensor; label: 5'-FAM (with added 5' T), 5'-Cy5 or 5'-biotin; multi-hairpin on stem; G-quadruplex predicted.
Series [12] shares this target. In words: BLI; 2:1 heterogeneous ligand fit, second Kd; off-target. To be noted: tags: His-tag, Novus Biologicals NBP2-22742, immobilized on Ni-NTA biosensor; label: 5'-FAM (with added 5' T), 5'-Cy5 or 5'-biotin; multi-hairpin on stem; G-quadruplex predicted.
Series [13] addresses T1, Transferrin receptor 1 (TfR1, CD71). In words: BLI; 25 C, 5.5 mM Mg, 1:1 fit; tRNA and salmon sperm DNA present. Conditions: tags: biotinylated, ACROBiosystems TfR-H82E5, immobilized on streptavidin biosensor; chain copies: 2; label: 5'-FAM (with added 5' T), 5'-Cy5 or 5'-biotin; multi-hairpin on stem; G-quadruplex predicted.
Series [14] deals with T3, Transferrin receptor 1 (TfR1, CD71), …. In words: flow; Jurkat cells, apparent Kd, 4 C; TfR1-independent component present. To be noted: chain copies: 2 (stated homodimer); label: 5'-FAM (with added 5' T), 5'-Cy5 or 5'-biotin; multi-hairpin on stem; G-quadruplex predicted.
Series [15] shares this target. Put plainly: flow; H9 cells, apparent Kd (+/-0.2), 4 C. To be noted: chain copies: 2 (stated homodimer); label: 5'-FAM, 5'-Cy5 or 5'-biotin; hairpin.
The mark [16] stands for this setting: label: 5'-FAM, 5'-Cy5 or 5'-biotin, hairpin.

T3 sequence (P02786 89-760): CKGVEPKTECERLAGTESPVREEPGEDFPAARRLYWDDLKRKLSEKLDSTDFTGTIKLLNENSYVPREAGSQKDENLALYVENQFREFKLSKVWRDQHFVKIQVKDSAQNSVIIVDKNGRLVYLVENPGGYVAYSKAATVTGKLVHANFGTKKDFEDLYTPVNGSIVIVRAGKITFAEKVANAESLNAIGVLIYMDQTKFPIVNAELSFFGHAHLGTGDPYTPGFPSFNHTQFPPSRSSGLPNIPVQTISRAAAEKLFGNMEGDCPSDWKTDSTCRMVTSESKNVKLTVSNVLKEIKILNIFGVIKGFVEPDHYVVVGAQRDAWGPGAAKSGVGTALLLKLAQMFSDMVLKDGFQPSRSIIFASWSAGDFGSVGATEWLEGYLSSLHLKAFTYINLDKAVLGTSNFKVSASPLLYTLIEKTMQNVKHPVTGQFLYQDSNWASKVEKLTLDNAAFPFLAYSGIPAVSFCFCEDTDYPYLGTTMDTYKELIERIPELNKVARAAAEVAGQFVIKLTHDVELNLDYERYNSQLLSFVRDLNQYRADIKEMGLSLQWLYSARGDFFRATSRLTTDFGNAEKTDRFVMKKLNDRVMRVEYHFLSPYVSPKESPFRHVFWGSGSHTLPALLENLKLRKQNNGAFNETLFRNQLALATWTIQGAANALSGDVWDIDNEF
T1 sequence (P02786 89-760): as above
T2 sequence (P62633 whole entry, one chain of several): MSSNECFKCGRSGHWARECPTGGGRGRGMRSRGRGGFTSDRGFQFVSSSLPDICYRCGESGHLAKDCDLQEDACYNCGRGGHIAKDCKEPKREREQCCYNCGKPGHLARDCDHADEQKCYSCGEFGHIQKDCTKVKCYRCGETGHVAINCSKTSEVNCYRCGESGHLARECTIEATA
Transferrin receptor 1 (mTfR1), sequence (Q62351 89-763): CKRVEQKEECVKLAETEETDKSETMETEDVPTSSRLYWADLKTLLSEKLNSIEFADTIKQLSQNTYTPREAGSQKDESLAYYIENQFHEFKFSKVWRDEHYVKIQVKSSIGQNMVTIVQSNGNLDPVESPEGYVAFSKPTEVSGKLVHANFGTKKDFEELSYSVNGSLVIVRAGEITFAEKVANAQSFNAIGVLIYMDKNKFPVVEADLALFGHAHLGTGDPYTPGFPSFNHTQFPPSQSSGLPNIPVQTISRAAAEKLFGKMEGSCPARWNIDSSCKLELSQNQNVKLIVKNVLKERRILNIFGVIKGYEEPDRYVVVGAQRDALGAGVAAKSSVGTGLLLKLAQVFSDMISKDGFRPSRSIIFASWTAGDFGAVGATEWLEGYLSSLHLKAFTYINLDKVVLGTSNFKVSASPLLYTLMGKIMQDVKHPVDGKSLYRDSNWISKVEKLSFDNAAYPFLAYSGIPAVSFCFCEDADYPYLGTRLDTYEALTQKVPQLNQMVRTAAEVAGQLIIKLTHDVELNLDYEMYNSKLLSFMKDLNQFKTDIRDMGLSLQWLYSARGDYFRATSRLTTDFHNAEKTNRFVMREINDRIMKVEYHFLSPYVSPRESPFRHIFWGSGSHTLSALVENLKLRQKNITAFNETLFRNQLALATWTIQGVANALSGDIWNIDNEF

B1: JBA8.7 (ssDNA)
DNA: ATCCAGAGTGACGCAGCAACCACAGATGCAAATGCGCGAGAGCGGGACGGTTTGCTAGGCTCATGGACACGGTGGCTTAGT
For the molecule B1, the binding result in [1] was “no binding”.

B2: RANL (ssDNA)
DNA: ATCCAGAGTGACGCAGCAAATTCCAAACTCGAGTAAGCGTAGAGCCTCTCATCGCCTCAATAATGGACACGGTGGCTTAGT
Regarding B2, the binding result in [2] (label: 5'-FAM, 5'-Cy5 or 5'-biotin) was “no binding”; in [3], “no binding”.

B3: JBA8.3 (ssDNA)
DNA: ATCCAGAGTGACGCAGCAGGGGCCGCGGATGCAAACGCCCGATAGGGGGACGGCACTGGAGCTTGGACACGGTGGCTTAGT
On to B3, for which the binding result in [1] is on record as “no binding”.

B4: rvCD71apt (JBA1.2) (ssDNA)
DNA: GGAGTCACACGCATTAGCGTAAAGGGGGTGTTTGTGCGGTGTGGAGTGCGCGTGCTAATGCTGGAGTGTTTCCCAGGACCC
For B4, the Kd in series [4] (label: biotin, 3' 8-nt toehold overhang, redesigned stem) worked out at 35.2 nM; in [5], 28.5 nM; in [6], 35 nM.

B5: JBA8.11 (ssDNA)
DNA: ATCCAGAGTGACGCAGCAGCCGGTCGCAGATGCAAATGCCCGACAGGGGGACGCGGGCTGCCATGGACACGGTGGCTTAGT
As to B5, in [1], the binding result was “no binding”.

B6: JBA8.26 (ssDNA)
DNA: ATCCAGAGTGACGCAGCAGCGTAAAGGGGGTGTTTGTGCGGTGTGGAGTGCGCGCGCTGCTGCTGGACACGGTGGCTTAGT
B6: the Kd in [7] (label: 5'-FAM or 5'-Cy5, multi-hairpin with extended stem) was determined as 6.87 nM; in series [8], 3.3 nM.

B7: JBA8.1 (ssDNA)
DNA: ATCCAGAGTGACGCAGCAGCGTAAAGGGGGTGTTTGTGCGGTGTGGAGTGCGCGTGCTGCTGCTGGACACGGTGGCTTAGT
Consider B7, for which the Kd in series [4] (label: 5'-FAM or 5'-Cy5, multi-hairpin on stem, G-quadruplex predicted) is 5.5 nM.

B8: JBA8.15 (ssDNA)
DNA: ATCCAGAGTGACGCAGCACTCTCGGGGGGTAGGTGGGAAGGGGGCCGCCCCCTGGGTTAGGCTTGGACACGGTGGCTTAGT
B8: in [1], the binding result was “no binding”.

B9: tJBA8.1 (ssDNA)
DNA: GCAGCAGCGTAAAGGGGGTGTTTGTGCGGTGTGGAGTGCGCGTGCTGCTGC
Consider B9, for which the Kd in [9] was 25.6 nM; in [11] it was 1.85 nM; in [12], 8.07 nM; in [13] it was 25.1 nM; in series [14], 10.9 nM. Also, the binding result in series [10] is “no binding”.

B10: tJBA8.1 GGGAG (ssDNA)
DNA: GCAGCAGCGTAAAGGGAGTGTTTGTGCGGTGTGGAGTGCGCGTGCTGCTGC
Regarding B10, the binding result in series [2] is reported as “no binding”.

B11: tJBA8.1 GGAGG (ssDNA)
DNA: GCAGCAGCGTAAAGGAGGTGTTTGTGCGGTGTGGAGTGCGCGTGCTGCTGC
For the molecule B11, the binding result in series [2] was “no binding”.

B12: tJBA8.1 GGGGC (ssDNA)
DNA: GCAGCAGCGTAAAGGGGCTGTTTGTGCGGTGTGGAGTGCGCGTGCTGCTGC
For the molecule B12, the binding result in series [2] is recorded as “no binding”.

B13: XQ-2d (ssDNA)
DNA: ACTCATAGGGTTAGGGGCTGCTGGCCAGATACTCAGATGGTAGGGTTACTATGAGC
Regarding B13, the binding result in [2] (setting [16]) is “no binding”. In addition, the results for the Kd in series [7] (setting [16]) and in series [15] were 14.4 nM and 2.2 nM, respectively.

B14: JBA8.4 (ssDNA)
DNA: ATCCAGAGTGACGCAGCAACCCAAACCACCAGCCGGGGATGCAAACACCGCACAGGGAACGGCTGGACACGGTGGCTTAGT
With B14, in [1], the binding result is “no binding”.

Values taken from patent US12760268, “Compositions and methods related to transferrin receptor-binding aptamers” (University of Washington).
